# What was measured:
# [1] = target: biotinylated human FcRn (hFcRn; p51 subunit residues 24-297 with C-terminal Avi-tag, β2-m residues 21-119) (human) (UniProt P55899); test: Biacore SPR, human FcRn, pH 7.4, steady state
# [2] = target: biotinylated human FcRn (hFcRn; p51 subunit residues 24-297 with C-terminal Avi-tag, β2-m residues 21-119) (human) (UniProt P55899); test: Biacore SPR, human FcRn, pH 6.0 (column 'Affinity, pH 6.0 (nM)')
# [3] = target: Human CD16a (FcγRIIIa residues 17-208, C-terminal HPC4 tag, valine at position 158) (human) (UniProt P08637); test: Biacore SPR, HPC4-captured FcγRIIIa-V158, pH 7.4
# [4] = target: biotinylated human FcRn (hFcRn; p51 subunit residues 24-297 with C-terminal Avi-tag, β2-m residues 21-119) (human) (UniProt P55899); test: Biacore SPR, Biotin CAPture, pH 7.4, 1000 nM antibody, steady state
# [5] = target: biotinylated human FcRn (hFcRn; p51 subunit residues 24-297 with C-terminal Avi-tag, β2-m residues 21-119) (human) (UniProt P55899); test: Biacore SPR; pH 6.0 affinity (M^-1) over pH 7.4 steady state RU
# [6] = target: biotinylated human FcRn (hFcRn; p51 subunit residues 24-297 with C-terminal Avi-tag, β2-m residues 21-119) (human) (UniProt P55899); test: Biacore SPR, pH 7.4, steady state, 1000 nM antibody
# [7] = target: biotinylated human FcRn (hFcRn; p51 subunit residues 24-297 with C-terminal Avi-tag, β2-m residues 21-119) (human) (UniProt P55899); test: Biacore SPR, pH 6.0, apparent affinity
# [8] = target: biotinylated human FcRn (hFcRn; p51 subunit residues 24-297 with C-terminal Avi-tag, β2-m residues 21-119) (human) (UniProt P55899); test: Biacore SPR; second ratio column (inverse of c7)
# [9] = target: biotinylated human FcRn (hFcRn; p51 subunit residues 24-297 with C-terminal Avi-tag, β2-m residues 21-119) (human) (UniProt P55899); test: Biacore SPR, Biotin CAPture of biotinylated human FcRn, pH 6.0
# rFcRn (rat) [10] = target: rFcRn (rat) (UniProt P13599); test: Biacore SPR, pH 7.4, single antibody concentration, steady state
# [11] = target: biotinylated hFcRn (human) (UniProt P55899); test: as above
# [12] = target: Human CD16a (FcγRIIIa) V158 with C-terminal HPC4 tag (human) (UniProt P08637); test: Biacore SPR, captured HPC4-tagged FcγRIIIa-V158, steady-state fit
# rFcRn (rat) [13] = target: rFcRn (rat) (UniProt P13599); test: Biacore SPR, pH 6.0, bivalent fit
# [14] = target: biotinylated hFcRn (human) (UniProt P55899); test: Biacore SPR, pH 6.0, bivalent fit
# [15] = target: Human CD16a (FcγRIIIa) V158 with C-terminal HPC4 tag (human) (UniProt P08637); test: Biacore SPR, captured FcγRIIIa-V158, relative to WT of the same backbone
# [16] = target: biotinylated cynomolgus FcRn (cynomolgus) (UniProt Q8SPV9); test: Biacore SPR, pH 6.0
# mouse FcRn (mouse) [17] = target: mouse FcRn (mouse) (UniProt Q61559); test: Biacore SPR, pH 6.0
# [18] = target: biotinylated hFcRn (human) (UniProt P55899); test: Biacore SPR, pH 6.0
# [19] = target: biotinylated cynomolgus FcRn (cynomolgus) (UniProt Q8SPV9); test: Biacore SPR, pH 7.4, steady state
# mouse FcRn (mouse) [20] = target: mouse FcRn (mouse) (UniProt Q61559); test: Biacore SPR, pH 7.4, steady state
# [21] = target: biotinylated hFcRn (human) (UniProt P55899); test: Biacore SPR, pH 7.4, steady state
# Sequence of Human CD16a (FcγRIIIa) V158 with C-terminal HPC4 tag (human) (P08637 17-208 F176V): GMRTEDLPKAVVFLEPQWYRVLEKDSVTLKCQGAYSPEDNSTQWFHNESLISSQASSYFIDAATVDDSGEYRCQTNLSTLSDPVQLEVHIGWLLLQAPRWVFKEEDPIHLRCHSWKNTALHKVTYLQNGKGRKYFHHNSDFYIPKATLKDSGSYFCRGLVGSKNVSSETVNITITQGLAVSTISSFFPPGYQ
# Sequence of rFcRn (rat) (P13599 23-298, form in doubt, chain 1 of 2): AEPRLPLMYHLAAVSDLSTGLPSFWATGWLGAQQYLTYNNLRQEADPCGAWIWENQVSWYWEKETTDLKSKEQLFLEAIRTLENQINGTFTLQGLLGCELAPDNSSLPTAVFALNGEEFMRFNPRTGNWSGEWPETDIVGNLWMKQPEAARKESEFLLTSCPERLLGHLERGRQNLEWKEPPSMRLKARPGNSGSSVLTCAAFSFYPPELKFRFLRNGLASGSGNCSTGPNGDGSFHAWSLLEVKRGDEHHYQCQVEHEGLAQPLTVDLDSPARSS
# Sequence of rFcRn (rat) (P07151 21-119, form in doubt, chain 2 of 2, further chain): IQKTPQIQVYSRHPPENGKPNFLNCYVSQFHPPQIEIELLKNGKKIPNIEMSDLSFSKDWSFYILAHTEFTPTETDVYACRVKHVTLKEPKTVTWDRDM
# Sequence of mouse FcRn (mouse) (Q61559 22-297, chain 1 of 2): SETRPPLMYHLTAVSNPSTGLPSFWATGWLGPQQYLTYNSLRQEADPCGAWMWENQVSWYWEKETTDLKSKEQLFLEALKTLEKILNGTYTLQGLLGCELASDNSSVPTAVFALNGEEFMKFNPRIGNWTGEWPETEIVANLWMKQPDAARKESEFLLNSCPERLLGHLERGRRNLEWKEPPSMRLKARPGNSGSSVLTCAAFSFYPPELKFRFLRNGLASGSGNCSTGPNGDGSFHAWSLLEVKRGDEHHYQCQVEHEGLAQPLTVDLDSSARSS
# Sequence of mouse FcRn (mouse) (P01887 21-119, chain 2 of 2, further chain): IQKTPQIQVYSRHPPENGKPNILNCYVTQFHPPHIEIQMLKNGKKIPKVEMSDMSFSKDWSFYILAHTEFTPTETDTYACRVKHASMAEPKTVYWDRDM
# Sequence of biotinylated human FcRn (hFcRn; p51 subunit residues 24-297 with C-terminal Avi-tag, β2-m residues 21-119) (human) (P55899 24-297, form in doubt, chain 1 of 2): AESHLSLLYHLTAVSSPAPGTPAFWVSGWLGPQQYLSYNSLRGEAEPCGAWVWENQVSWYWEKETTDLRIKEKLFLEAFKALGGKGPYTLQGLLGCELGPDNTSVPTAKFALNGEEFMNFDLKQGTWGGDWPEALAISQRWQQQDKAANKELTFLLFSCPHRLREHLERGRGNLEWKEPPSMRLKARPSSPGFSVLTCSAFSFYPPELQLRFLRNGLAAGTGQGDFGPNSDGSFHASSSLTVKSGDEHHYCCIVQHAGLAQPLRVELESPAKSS
# Sequence of biotinylated human FcRn (hFcRn; p51 subunit residues 24-297 with C-terminal Avi-tag, β2-m residues 21-119) (human) (P61769 21-119, form in doubt, chain 2 of 2, further chain): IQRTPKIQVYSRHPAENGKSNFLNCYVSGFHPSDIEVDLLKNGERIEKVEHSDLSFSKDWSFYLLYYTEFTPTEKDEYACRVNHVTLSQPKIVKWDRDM
# Sequence of biotinylated hFcRn (human) (P55899 24-297, form in doubt, chain 1 of 2): as the sequence (P55899 24-297, form in doubt, chain 1 of 2) above
# Sequence of biotinylated hFcRn (human) (P61769 21-119, form in doubt, chain 2 of 2, further chain): as the sequence (P61769 21-119, form in doubt, chain 2 of 2, further chain) above
# Sequence of Human CD16a (FcγRIIIa residues 17-208, C-terminal HPC4 tag, valine at position 158) (human) (P08637 17-208 F176V): as the sequence (P08637 17-208 F176V) above
Substance,Steady State RU (pH 7.4) [1] [RU],pH 7.4 RU [4] [RU],Kd [9] [nM],Steady State RU (pH 7.4) (rFcRn (rat) [10]) [RU],Steady State RU (pH 7.4) [11] [RU],Kd [12] [nM],Kd (rFcRn (rat) [13]) [nM],koff (rFcRn (rat) [13]) [s⁻¹],kon (rFcRn (rat) [13]) [M⁻¹ s⁻¹],Kd [14] [nM],kon [14] [M⁻¹ s⁻¹],FcγRIIIa V158 Affinity Fold Change (fold relative to WT) [15],Kd [16] [nM],Kd (mouse FcRn (mouse) [17]) [nM],Kd [18] [nM],Steady State RU (pH 7.4) [19] [RU],Steady State RU (pH 7.4) (mouse FcRn (mouse) [20]) [RU],Steady State RU (pH 7.4) [21] [RU],other results
mAb1 YDQY variant (M252Y/T256D/T307Q/N434Y) (antibody),103,103,2.7,–,–,–,–,–,–,–,–,–,–,–,–,–,–,–,"Kd [2]: 2.7 nM; FcγRIIIa Binding (RU) [3]: 119 RU; Ratio (pH 6.0/pH 7.4) [5]: 2.93e+06; Steady State Binding, pH 7.4 (RU) [6]: 80.2 RU; Ka [7]: 2.35e+08 M⁻¹; Ratio (pH 7.4/pH 6.0) [8]: 3.41e-07"
mAb1 YDWY variant (M252Y/T256D/T307W/N434Y) (antibody),91.2,91.2,5.2,–,–,–,–,–,–,–,–,–,–,–,–,–,–,–,"Kd [2]: 5.2 nM; FcγRIIIa Binding (RU) [3]: 104 RU; Ratio (pH 6.0/pH 7.4) [5]: 3.01e+06; Steady State Binding, pH 7.4 (RU) [6]: 88.5 RU; Ka [7]: 2.66e+08 M⁻¹; Ratio (pH 6.0/pH 7.4) [8]: 3.33e-07"
mAb1 YEQN (M252Y/T256E/T307Q) (antibody),–,–,–,61.8,15.2,1620,7.8,0.0004,5000,218,19000,–,–,–,–,–,–,–,koff [14]: 0.41 s⁻¹
mAb1 YEQY variant (M252Y/T256E/T307Q/N434Y) (antibody),93.6,93.6,4.8,–,–,–,–,–,–,–,–,–,–,–,–,–,–,–,Kd [2]: 4.8 nM
mAb1 YETN (M252Y/T256E) (antibody),–,–,–,55.1,9.8,878,8.4,0.0027,32000,128,59000,–,–,–,–,–,–,–,–
mAb1 YEWY variant (M252Y/T256E/T307W/N434Y) (antibody),98.2,98.2,–,–,–,–,–,–,–,–,–,–,–,–,–,–,–,–,–
mAb1 YTE (M252Y/S254T/T256E) (antibody),–,–,–,53.9,13.2,1040,18,0.0012,65000,342,143000,–,–,–,–,–,–,–,koff [14]: 0.05 s⁻¹
mAb1 YTTY variant (M252Y/N434Y) (antibody),–,54.4,22.9,–,–,–,–,–,–,–,–,–,–,–,–,–,–,–,"Ratio (pH 6.0/pH 7.4) [5]: 2.22e+06; Steady State Binding, pH 7.4 (RU) [6]: 54.1 RU; Ka [7]: 1.2e+08 M⁻¹; Ratio (pH 7.4 RU / pH 6.0 affinity) [8]: 4.51e-07"
mAb1 YTWN (M252Y/T307W) (antibody),–,–,–,66.1,15.9,896,5.2,0.0011,21000,118,48000,–,–,–,–,–,–,–,–
mAb2 DQ (T256D/T307Q) (antibody),–,–,–,–,–,–,–,–,–,–,–,1.05,110,24,97,11,248,14,–
mAb2 DW (T256D/T307W) (antibody),–,–,–,–,–,–,–,–,–,–,–,1.15,99,13,69,15,257,18,–
mAb2 LS (M428L/N434S) (antibody),–,–,–,–,–,–,–,–,–,–,–,1.23,210,20,113,38,285,44,–
mAb2 YD (M252Y/T256D) (antibody),–,–,–,–,–,–,–,–,–,–,–,0.58,120,10,99,22,394,27,–

# From patent US20190263934A1
